Measured values taken from patent publication US20050064507.

How the values were obtained:
[1] = molecular target: T1, ankyrin R peptide DLIEGRKGAQIVKRASLKRG (SEQ ID NO:152) (not fully specified)
T1 chain: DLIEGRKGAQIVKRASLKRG

[2] = molecular target: T2, PLD1 peptide KYKAFIRIPIPTRRHTFRRQ (SEQ ID NO:161) (not fully specified)
T2 chain: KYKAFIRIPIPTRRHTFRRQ

[3] = molecular target: T3, MARCKS peptide KKRFSFKKSFKLSGFSFKKN (SEQ ID NO:119) (not fully specified)
T3 chain: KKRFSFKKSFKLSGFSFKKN

[4] = molecular target: T4, HERG peptide TELEGGFSRQRKRKLSFRRR (SEQ ID NO:140) (not fully specified)
T4 chain: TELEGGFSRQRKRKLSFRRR

[5] = molecular target: T5, PSCD2 peptide AARKKRISVKKKQEQ (SEQ ID NO:93) (not fully specified)
T5 chain: AARKKRISVKKKQEQ

[6] = molecular target: T6, AF15q14 peptide GFLNEPLSSKSQRRKSLKLK (SEQ ID NO:132) (not fully specified)
T6 chain: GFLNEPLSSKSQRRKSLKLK

[7] = molecular target: T7, NEURL peptide ALRRPSLRREADD (SEQ ID NO:105) (not fully specified)
T7 chain: ALRRPSLRREADD

[8] = molecular target: T8, SDPR peptide EKIKRSSLKKVDSLKK (SEQ ID NO:104) (not fully specified)
T8 chain: EKIKRSSLKKVDSLKK

[9] = molecular target: T9, ARHGAP6 peptide DGQKRKKSLRKKLD (SEQ ID NO:92) (not fully specified)
T9 chain: DGQKRKKSLRKKLD

[10] = molecular target: T10, NIK peptide TEGKMARVAWKGKRRSKARK (SEQ ID NO:164) (not fully specified)
T10 chain: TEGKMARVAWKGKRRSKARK

[11] = molecular target: T11, AKAP12 peptide AGWRKKTSFRKPKED (SEQ ID NO:99) (not fully specified)
T11 chain: AGWRKKTSFRKPKED

[12] = molecular target: T12, ERN1 peptide ISDFGLAKKLAVGRHSFSRR (SEQ ID NO:145) (not fully specified)
T12 chain: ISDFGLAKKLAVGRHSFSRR

[13] = molecular target: T13, beta adducin peptide PSKSPSKKKKKFRTPSFLKK (SEQ ID NO:137) (not fully specified)
T13 chain: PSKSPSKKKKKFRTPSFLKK

[14] = molecular target: T14, ERN1 peptide KLAVGRHSFSRRSGV (SEQ ID NO:94) (not fully specified)
T14 chain: KLAVGRHSFSRRSGV

[15] = molecular target: T15, NCF1 peptide GAPPRRSSIRNAH (SEQ ID NO:101) (not fully specified)
T15 chain: GAPPRRSSIRNAH

[16] = molecular target: T16, fit1 peptide VQMTWSYPDEKNKRASVRRR (SEQ ID NO:158) (not fully specified)
T16 chain: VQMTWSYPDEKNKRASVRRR

[17] = molecular target: T17, KCNH2 peptide RQRKRKLSFRRRTDKD (SEQ ID NO:86) (not fully specified)
T17 chain: RQRKRKLSFRRRTDKD

[18] = molecular target: T18, dag kinase zeta peptide RPQNTLKASKKKKRASFKRK (SEQ ID NO:118) (not fully specified)
T18 chain: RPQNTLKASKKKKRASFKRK

[19] = molecular target: T19, DGKZ peptide KKKKRASFKRKSSKKG (SEQ ID NO:77) (not fully specified)
T19 chain: KKKKRASFKRKSSKKG

[20] = molecular target: T20, cytohesin-2 peptide VDPFYEMLAARKKRISVKKK (SEQ ID NO:150) (not fully specified)
T20 chain: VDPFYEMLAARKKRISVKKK

[21] = molecular target: T21, plectin peptide PLKEKKRERKTSSKSSVRKR (SEQ ID NO:125) (not fully specified)
T21 chain: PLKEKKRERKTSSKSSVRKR

[22] = molecular target: T22, nuclear RNA export factor 3 peptide VRYTPYTISPYNRKGSFRKQ (SEQ ID NO:143) (not fully specified)
T22 chain: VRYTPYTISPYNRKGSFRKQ

[23] = molecular target: T23, MYBPC3 peptide LLKKRDSFRTPRDSKLE (SEQ ID NO:103) (not fully specified)
T23 chain: LLKKRDSFRTPRDSKLE

[24] = molecular target: T24, MARCKS peptide PSPSNETPKKKKKRFSFKKS (SEQ ID NO:157) (not fully specified)
T24 chain: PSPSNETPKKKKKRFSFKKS

[25] = molecular target: T25, ARHGAP4 peptide AGPLRKSSLKKGGRL (SEQ ID NO:98) (not fully specified)
T25 chain: AGPLRKSSLKKGGRL

[26] = molecular target: T26, GABA A receptor beta 2 peptide ERHVAQKKSRLRRRASQLKI (SEQ ID NO:142) (not fully specified)
T26 chain: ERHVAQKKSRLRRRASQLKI

[27] = molecular target: T27, ANK1 peptide AQIVKRASLKRGKQ (SEQ ID NO:90) (not fully specified)
T27 chain: AQIVKRASLKRGKQ

[28] = molecular target: T28, PSCDBP peptide LSSMFGTLPRKSRKGSVRKQ (SEQ ID NO:144) (not fully specified)
T28 chain: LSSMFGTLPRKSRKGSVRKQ

[29] = molecular target: T29, gravin peptide KKFFTQGWAGWRKKTSFRKP (SEQ ID NO:154) (not fully specified)
T29 chain: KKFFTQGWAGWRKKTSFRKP

[30] = molecular target: T30, GABRB2 peptide QKKSRLRRRASQLKI (SEQ ID NO:84) (not fully specified)
T30 chain: QKKSRLRRRASQLKI

[31] = molecular target: T31, ribosomal protein S6 peptide AKRRRLSSLRASTSK (SEQ ID NO:120) (not fully specified)
T31 chain: AKRRRLSSLRASTSK

B1: PKC-zeta (protein)
chain: MPSRTGPKMEGSGGRVRLKAHYGGDIFITSVDAATTFEELCEEVRDMCRLHQQHPLTLKWVDSEGDPCTVSSQMELEEAFRLARQCRDEGLIIHVFPSTPEQPGLPCPGEDKSIYRRGARRWRKLYRANGHLFQAKRFNRRAYCGQCSERIWGLARQGYRCINCKLLVHKRCHGLVPLTCRKHMDSVMPSQEPPVDDKNEDADLPSEETDGIAYISSSRKHDSIKDDSEDLKPVIDGMDGIKISQGLGLQDFDLIRVIGRGSYAKVLLVRLKKNDQIYAMKVVKKELVHDDEDIDWVQTEKHVFEQASSNPFLVGLHSCFQTTSRLFLVIEYVNGGDLMFHMQRQRKLPEEHARFYAAEICIALNFLHERGIIYRDLKLDNVLLDADGHIKLTDYGMCKEGLGPGDTTSTFCGTPNYIAPEILRGEEYGFSVDWWALGVLMFEMMAGRSPFDIITDNPDMNTEDYLFQVILEKPIRIPRFLSVKASHVLKGFLNKDPKERLGCRPQTGFSDIKSHAFFRSIDWDLLEKKQALPPFQPQITDDYGLDNFDTQFTSEPVQLTPDDEDAIKRIDQSEFEGFEYINPLLLSTEESV
B1 was tested, and the in vitro phosphorylation, 1 uM peptide (% of best substrate) [1] was 4, the in vitro phosphorylation, 10 uM peptide (% of best substrate) [1] was 9 and the in vitro phosphorylation, 1 uM peptide (% of best substrate) [2] was 15. The in vitro phosphorylation, 10 uM peptide (% of best substrate) [2] was 9, the in vitro phosphorylation, 1 uM peptide (% of best substrate) [3] was 20 and the in vitro phosphorylation, 10 uM peptide (% of best substrate) [3] was 20. The in vitro phosphorylation, 1 uM peptide (% of best substrate) [4] was 24, the in vitro phosphorylation, 10 uM peptide (% of best substrate) [4] was 49 and the in vitro phosphorylation (% of best substrate) [5] was 1. It also gave an in vitro phosphorylation, 1 uM peptide (% of best substrate) [6] of 19, an in vitro phosphorylation, 10 uM peptide (% of best substrate) [6] of 61 and an in vitro phosphorylation (% of best substrate) [7] of 4. For the same protein, the in vitro phosphorylation (% of best substrate) [8] was 3, the in vitro phosphorylation (% of best substrate) [9] was 2 and the in vitro phosphorylation, 1 uM peptide (% of best substrate) [10] was 3. It also gave an in vitro phosphorylation, 10 uM peptide (% of best substrate) [10] of 2, an in vitro phosphorylation (% of best substrate) [11] of 10 and an in vitro phosphorylation, 1 uM peptide (% of best substrate) [12] of 25. For the same protein, the in vitro phosphorylation, 10 uM peptide (% of best substrate) [12] was 61, the in vitro phosphorylation, 1 uM peptide (% of best substrate) [13] was 4 and the in vitro phosphorylation, 10 uM peptide (% of best substrate) [13] was 5. The in vitro phosphorylation (% of best substrate) [14] was 10, the in vitro phosphorylation (% of best substrate) [15] was 3 and the in vitro phosphorylation, 1 uM peptide (% of best substrate) [16] was 11. For the same protein, the in vitro phosphorylation, 10 uM peptide (% of best substrate) [16] was 72, the in vitro phosphorylation (% of best substrate) [17] was 28 and the in vitro phosphorylation, 1 uM peptide (% of best substrate) [18] was 46. The in vitro phosphorylation, 10 uM peptide (% of best substrate) [18] was 57, the in vitro phosphorylation (% of best substrate) [19] was 60 and the in vitro phosphorylation, 1 uM peptide (% of best substrate) [20] was 3. For the same protein, the in vitro phosphorylation, 10 uM peptide (% of best substrate) [20] was 6, the in vitro phosphorylation, 1 uM peptide (% of best substrate) [21] was 13 and the in vitro phosphorylation, 10 uM peptide (% of best substrate) [21] was 12. The in vitro phosphorylation, 1 uM peptide (% of best substrate) [22] was 22, the in vitro phosphorylation, 10 uM peptide (% of best substrate) [22] was 79 and the in vitro phosphorylation (% of best substrate) [23] was 8. It also gave an in vitro phosphorylation, 1 uM peptide (% of best substrate) [24] of 3, an in vitro phosphorylation, 10 uM peptide (% of best substrate) [24] of 6 and an in vitro phosphorylation (% of best substrate) [25] of 4. For the same protein, the in vitro phosphorylation, 1 uM peptide (% of best substrate) [26] was 22, the in vitro phosphorylation, 10 uM peptide (% of best substrate) [26] was 37 and the in vitro phosphorylation (% of best substrate) [27] was 5. It also gave an in vitro phosphorylation, 1 uM peptide (% of best substrate) [28] of 16, an in vitro phosphorylation, 10 uM peptide (% of best substrate) [28] of 54 and an in vitro phosphorylation, 1 uM peptide (% of best substrate) [29] of 27. It also gave an in vitro phosphorylation, 10 uM peptide (% of best substrate) [29] of 23, an in vitro phosphorylation (% of best substrate) [30] of 19 and an in vitro phosphorylation, 1 uM peptide (% of best substrate) [31] of 43. It also gave an in vitro phosphorylation, 10 uM peptide (% of best substrate) [31] of 34.
